Data from patent publication US20240190950A1 (SHANGHAI JIAO TONG UNIVERSITY, published 2024).

T1: FGFR1 (protein used in the ForteBio and ELISA assays) (human, UniProt P11362 22-376, limits assumed)
T1 construct: That entry still holds signal peptide, transmembrane and kinase parts; also called human FGFR1
T1 sequence: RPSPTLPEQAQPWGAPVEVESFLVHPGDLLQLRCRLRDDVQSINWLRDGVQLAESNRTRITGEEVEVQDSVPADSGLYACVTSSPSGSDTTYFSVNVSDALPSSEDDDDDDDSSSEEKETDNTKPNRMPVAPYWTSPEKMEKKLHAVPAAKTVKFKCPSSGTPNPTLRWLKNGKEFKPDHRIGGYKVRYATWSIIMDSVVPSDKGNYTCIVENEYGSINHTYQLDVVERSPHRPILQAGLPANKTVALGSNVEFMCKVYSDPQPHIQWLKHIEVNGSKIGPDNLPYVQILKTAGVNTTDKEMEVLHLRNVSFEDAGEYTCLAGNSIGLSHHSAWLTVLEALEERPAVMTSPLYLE

B1: 14E3 (antibody, IgG2a, V domains shown)
VH: QIQLVQSGPELKKPGETVKISCKTSGSTFTTYGMAWMKQAPGKGLTWMGWINTLSGEPTYADDFKGRFAFSLKTSANTAYLQINNLKNEDAATYFCAREPMDYWGQGTSVIVSS
VL: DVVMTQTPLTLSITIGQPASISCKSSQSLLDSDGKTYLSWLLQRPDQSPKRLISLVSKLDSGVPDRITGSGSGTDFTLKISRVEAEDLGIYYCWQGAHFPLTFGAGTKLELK
notes: also called anti-human-Gremlin1 (14E3); anti-human-GREM1 antibody 14E3
B2: Gremlin1 (human gremlin 1, hGREM1) (ligand)
chain: KKKGSQGAIPPPDKAQHNDSEQTQSPQQPGSRNRGRGQGRGTAMPGEEVLESSQEALHVTERKYLKRDWCKTQPLKQTIHEEGCNSRTIINRFCYGQCNSFYIPRHIRKEEGSFQSCSFCKPKKFTTMMVTLNCPELQPPTKKKRVTRVKQCRCISIDLD
modifications: biotin label in the ForteBio assay (site not stated)
notes: also called Gremlin1-biotin; Flag-tagged GREM1

Key:
[1] = target: B2; assay: ELISA, antibody titrated on Gremlin1 (Ab is anti-human-Gremlin1 14E3)
[2] = target: T1, FGFR1 (protein used in the ForteBio and …); assay: ForteBio (the text calls it surface plasmon resonance analysis); Gremlin1-biotin immobilized on streptavidin sensor, FGFR1 in solution
Text: We next asked the mechanism leading to the activation of the FGFR1/MEK/ERK signaling pathway by GREM1. We performed surface plasmon resonance analysis (Fortebio) to first assess whether GREM1 can bind to FGFR1. […] Computer simulation imitated that GREM1 binds to the extracellular domain of FGFR1 as a dimer (FIG. 9B). […] In addition, the activation of GREM1 on the FGFR1/MEK/ERK signaling pathway could be attenuated by adding excessive amount of soluble FGFR1 (FIG. 9G).

| EC50 (read off the curve) [1] | Kd [2] | Binder |
| --- | --- | --- |
| ~10 ng/mL |  | B1 |
|  | 10.6 nM | B2 |
